Assay results from PMC8093152, “Biosynthesis of the Tricyclic Aromatic Type II Polyketide Rishirilide: New Potential Third Ring Oxygenation after Three Cyclization Steps” (Molecular Biotechnology, 2021).

B1: RslO4 monooxygenase, C-terminal His-tag recombinant protein (enzyme, Streptomyces bottropensis Gö C4/4)
chain: MAVVFVNKLTLIGDAEEFESRYEAVGAFMETQPGLVRYSLVRSTKDDSVYFNIAEWDDEDTFRKALAEPEFRRRLDALTGLIKGEPHLSLPVRQGRAAQV
notes: RslO4, monooxygenase of the rishirilide (Rsl) gene cluster of Streptomyces bottropensis Gö C4/4; gene amplified from cosmid 4 and cloned between NdeI and XhoI of pET21a(+); rslO4 gene printed as 300 bps; predicted mass of the tagged protein 12.17 kDa; also called monooxygenase RslO4; cofactor-independent monooxygenase RslO4; source: E. coli BL21 (DE3) Star, pET21a(+), purified (Ni-NTA HisTrap FF, …)
B2: RslO1 monooxygenase, C-terminal His-tag recombinant protein (enzyme, Streptomyces bottropensis Gö C4/4)
chain: MKFGINLFPTVGPAEKSAGQHFEESLRLAELADELGFHHVKTVEHYFHEYGGYSPDPVTFLAAAAARTRRVRLVTGAVLPVFTHPLKLAGKLAMLDNISQGRLDVGFGRAFLPDEFTAFEISMDESRARFDEGVEAVRRLWAEEDVVWEGTFHRFGPVTMLPRTWQRPHPRILVATAKTPASAEAAARAGHGVMLVPSINPREQVQKTLSLYRDAASAAGFKPTEEDIHMSYNCYLAEDGQEARQKGGQASERANRALASAVSAWRETRSADYPGYEKIVEKAGRGDFDRAVAERKALVGTPDEVRAAIDDIRGWFGDFTISLQVISGAMPFEESARTMRLFAEHLLPHYAAND
notes: RslO1, FMN-dependent luciferase-like monooxygenase of the rishirilide (Rsl) gene cluster of Streptomyces bottropensis Gö C4/4; gene amplified from cosmid 4 and cloned between NdeI and XhoI of pET21a(+); predicted mass of the tagged protein 40.04 kDa; also called monooxygenase RslO1; FMN-dependent luciferase-like monooxygenase RslO1; source: E. coli BL21 (DE3) Star, pET21a(+), purified (Ni-NTA …)

What was measured:
[1] = target: the molecule itself; assay: crystal structure; apo RslO4, sitting drop vapor diffusion at 20 °C, 6% ethanol, 0.1 M ammonium acetate pH 5.5, 1.5 M phosphate pH 7.0; space group P3(2)21, two monomers in the asymmetric unit; 1.8 Å
[2] = target: the molecule itself; assay: crystal structure; apo RslO1, sitting drop vapor diffusion at 20 °C, 0.1 M HEPES pH 7.5, 36% polyethylene glycol 600 (seeded); space group P2(1)2(1)2(1); 1.60 Å

Protein | stoichiometry N [1] | stoichiometry N [2]
B1 | 2 | –
B2 | – | 2
